Results published in publication PMC9242855.

Molecular target: CMGE (Cdc45–MCM–GINS–Pol ε) (S. cerevisiae) (UniProt P29469)
Assay: negative-stain electron microscopy (2D averages, ReconSil); full CMG assembly reaction on nucleosome-flanked ARS1 origin DNA; DDK-phosphorylated double hexamers incubated with CDK, Dpb11, GINS, Cdc45, Pol ε, Sld3–Sld7, Sld2 and 5 mM ATP, 30 min at 30 °C

percent of CMG particles that are dimers (dCMGE, cis configuration): 11%
percent of CMG particles that are dimers (dCMGE, trans configuration): 70%
Substance: CMGE (Cdc45–MCM–GINS–Pol ε) (from UniProt P29469 1-868; P24279 1-971; P30665 1-933; P29496 1-775; P53091 1-1017; P38132 1-845; Q08032 1-650; Q03406 1-294; Q12146 1-194; P21951 1-2222; P24482 1-689) (complex)
